In IntAct's records for PubMed 29340707:

B1: Serine/threonine-protein kinase VRK1 (Homo sapiens), Q99986 (parent)
chain: MPRVKAAQAGRQSSAKRHLAEQFAVGEIITDMAKKEWKVGLPIGQGGFGCIYLADMNSSESVGSDAPCVVKVEPSDNGPLFTELKFYQRAAKPEQIQKWIRTRKLKYLGVPKYWGSGLHDKNGKSYRFMIMDRFGSDLQKIYEANAKRFSRKTVLQLSLRILDILEYIHEHEYVHGDIKASNLLLNYKNPDQVYLVDYGLAYRYCPEGVHKEYKEDPKRCHDGTIEFTSIDAHNGVAPSRRGDLEILGYCMIQWLTGHLPWEDNLKDPKYVRDSKIRYRENIASLMDKCFPEKNKPGEIAKYMETVKLLDYTEKPLYENLRDILLQGLKAIGSKDDGKLDLSVVENGGLKAKTITKKRKKEIEESKEPGVEDTEWSNTQTEEAIQTRSRTRKRVQK

Variants of: B1
Conditions: with aurkb_human AURKB

Variant	effect of a mutation on the interaction
K179E	increasing interaction strength

Variants of: B1
Conditions: with aurkb_human AURKB
Remark: another data set of the same source

Variant	effect of a mutation on the interaction
K179E	disrupting interaction strength
